According to the domain aggregation screens of Martell et al. (2025):

Assay: soluble fraction after stress (log2 fold change); higher = more stays soluble; pooled small domains, quantitative proteomics
Settings: stress: pH 4
In short: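 Custom libraries of small protein domains were pooled and measured with high-throughput quantitative proteomics after pH 4 stress. The read-out is the fold change in the amount of each domain that stays soluble after the acid stress, taken as a measure of aggregation propensity. Fold changes are on a log2 scale, and higher values mean more of the domain stayed soluble.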

Sequence | soluble fraction (log2)
HMLSLDDAAFERYDLTMREREVLLLLLNRLTYEEIAERLFISTNTVKTHVGNVYKKTGVSSRKELVSK | -0.953
HMEQQSIYLENRERMTINQVIDVDAFDEETLWANLKEGAVEISGSGLHIEKLDLAEGVLIVSGIIRAFAYV | -0.423
HMSDNHYLLEIFLADLKSDEKFIRELAIFQLHHHIESDKVRAELKAAAETESDPYLKGMIESLLSSTS | -1.2
HMSAGYTYQNYQQDLKSGNVQNIHIYLSEEMYSGNVKVIYKNNKSVTFTVTDVTIAEAEARQVGISPIIYE | -0.504
HMGIIQAQIPGLVSRLFVKKGDKVAVNQRLFILEAMKMENEIDSPIQGMVEKIHITTGSKVEKGDLIMEIV | ≥ 0.43
HMSNYFIEISKDSLARINDEIELDVLRETSDTIIISQEEKTNTISSFIKVLFERQIDILSIQNR | -1.25
HMGSFISADEALAKALSHAGLDQSAIRELEMDSELDDDVPHYSIDFKSGNLEYEYEISATDGSVLKFEQD | -0.0935
HMFPTLSPEEQRIVDQLAKENDLQANVIALRTALTIPQISALLFSLEMKGMVRLYAGGTYHLI | -0.142
HMSTTILSFQNRVVIETLHNEGRSLRYIANYLGFSKATIFNELHRLNSEYRAELAQADFERKVSQR | -0.53
HMDPTVEENKLNPRDLLIIQRVKEGRTNKEIAEELNVAEITVKKQLSSLYQRYKVHNRNQLLLALD | 0.245
HMSSKSLAALSPQEYRLLPLVAEGKTNKEIASALALSDKTVKNYLANIFSKLGITRRTQAATLYARAL | 0.252
HMDYIGIQAAKEAALKDADISSEQAVFTMAELDNKNNIFYYQIMFTENGTEYRYDIDALTGVIIEKNHFF | -0.0659
HMIRVVSIEDQPWFVAADVLKSLGMPTDKGVGKYLLALGSDERMLTTHGQIGGKGMAVTTIISESGLY | -0.703
HMDEKPPHEALSNREFQVLQLLAQGRSVGQIAQQLTLSANTISTYRARIFDKLGLHNPADLFSYAARHRLT | 0.111
HMGRRDLSWQPAAGGVSIDGLKAGEAWTLFGLNGRILKQGYAPEGQMSLAVNAGLFVLRGAESGVIRIAVA | -0.255
HMLLSYDIAEYIEKYIHEHGLQPGDRLPTERELAAQLDITRVSVRQGYKRLLDQGVIRSENGYYVNPPR | 0.0914
HMHSDSEIEKGYTDDGQKLSNVNGVYMTKSEMYNKGIVEKDPNTGEEVMGRNRVNPVTGELE | 0.204
HMVRDPYELLEVPREATPDEIKSAFRKLAARHHPDRNPDDPGAQERFKEINAAYQLLSDPQKRAMFDRFGA | 0.331
HMGGALSPDFGWLAMIDPDEGRAITLYDIASGEAIAVLDTHEARVAALAWSPDGTRLASGDQNGLIVQWEI | -1.43
HMATETELNLQLMRIIDELHTDHNTWGSRKITDYLRLQGYEINRKRIQRLMDVMDIQVVYPK | -0.00483
HMEWTDHLAEELRSLAVEGEHLEIIANKLGISPGSARAKLVNLNIYNDYQLAHIERLEADTLQAK | -0.967
HMEDISLYKILRAHSIDNLKLSQWIIDSLKTKFSTIGELQDAKIDDIRMYRIQDVRIEKIKNAVTEYMA | -0.701
HMEHDYGLSGREREVLELMVQGLVKKEIADRLALSYHTVDNHLRSIYAKLQVHTRGGAVAKALSEHLVPP | -0.483
HMGIKSSASLQEAAEKAQSAYYDIEHSGVATAVDIQRAWVAMVAAQIDAGEKLDSGTITLYERLKTST | -0.0327
HMGADPTTWPEIDAFVGRVAVTATGLFPSGQVEIDGRRFEARLAFGVAEPGARVVVRRRTDFGLLVEKETR | -0.531

Sequence | soluble fraction (log2)
HMTKLLITNYERNVLINSYLLKNTPELDDIRRLLVHNKHISENDVSTEMARRIKKHKADWLRVT | 0.00962
HMSHANAALTPRARLRLAKLIVEEHWPVATAAKMFMVSPPTARKWATRFRAEGPAGMADRSSRP | 0.123
HMSQDLVVLGDSMLNNALKAFHIDPNAIKKKYWDKLILDYHLKSKEEVLTEIALGKKINVMVAHQLTSIMD | -0.238
HMQGEASDAQLKAIFAIARKLGITDDFEVHRKASRLAGVPEPEVLPSLKSLTYAQASAVIKALQEELE | -0.0238
HMDSERTALLSSDRTSFTAREAALLIGVSQRDIYRMIEDELLDSFTVGKMIRIRRSALEWWLS | -1.46
HMTPTPQQNNILVGQTGTTLTRLAPMGKVRVGEVTAEAKTIDGYINPRQSVEVIGFENTVVIVRAV | 0.22
HMGLNLIGLKRSGFAPEEVKAMTRAYMYIFKSAEGNFESRLAKAHEKYKDDALIMEMVEFIDDALKG | -0.227
HMEWNPEKQHLLENYITNYSRQLNDTGLFYKNLDWNYIFNLVGVDDQEFLMLKIDEIYDESINVY | -1.63
HMDKVVGSAGDVTSRITANSGEVKIDGQIWQARSYDETIAIEAGEKIEVFDLDGITLIVYPI | -1.19
HMFNFPEEVRVQLAKSEQLRNLLIPMSETVRDALSGEELWFGRTIFNTTSKKIESWTNPGVWVE | -1.28
HMEQGDTQQEIREKILNLLADGERHMITELKNIRTDQPIDDDKIVGKTLKTLLDEEEVYMDGSYIQLNG | -0.997
HMSLSQLGLTPRQTDVLALLLKGQPNKLIARELGLSVETVKDHVAAVLRALNVSSRTQAVIAVSQMLQ | -0.533
HMNNLPDFIKQLRKENNLTQEYVASEIGVSRPTYEQIEKGKRELTISEAEKLAKIFNIPLENFLQGKKGV | -0.0996
HMKALYHQLVDLLKKRMESGMIPHDKLPSERELTAQYGVSRTTVRLALQELENTGYIYRRHGKGTFVSDI | 0.1
HMVDSVIGSVGRVTVDIDNVEALGQVKLGGMEWSARSTSGDPIPAGTEVRVDRVEGVKVFVTPV | -0.203
HMVEVPYSEFLKELDAGNVKDVYVSNGESQIQFTKKDQKQWNLSYKTGPIPGDDLVKRLQNADVENFT | -0.282
HMSHFSERLKSLRQQSSITQAKLADDLNVTKSLISMYESGQRLPSFEMLETIADYFNVPLSSLV | -0.51
HMSAGISVADVTNRTYDEGYNTLTAQHLLVNKVYEANETIPLDTIIRTDPVAGTKVPDNTSITVYVSSGK | -0.025
HMNAPKKPLSAYFLFSQEERLKVKAENPDYSITEVAKELGKRWATLNPDIKTVYEQRYQDARRIYETEMNT | -0.102
HMNWQLITDPKELRELVQKTIADNEAGTSRLREGDMGPLEFLTGIIMKKTRGLADPTMVKALLKEELNI | 0.0177
HMVRSLADQVYERLRRNIVSGDLAPNARIVELDIAAQMGTSQGPVREALQRLEREGLVQRRAHSATFVTD | -0.324
HMGTGVEQGKQYRTLKRDFDGASGIKVNGDFYRLRTSDTGMTELPAGTEVTFERFDGTTAVVHT | 0.196
HMYVKIAADAAMPYTIKRVVTDYSSAALDAAYDGSLPKWLTISSSTKDAGSGLYRHEIIYTVTAHPE | -0.942
HMRVEEVGYGEFLQMAEERDLAEVQVTDTEIIFSDKDTPPNYYKTGRMDDPFLVDRLYSAGIRDFGE | -1.65
HMEDAWMKKELWDAIATLPKKQRLVMTMRLTNNHSYKEIAAILGISENSAKVSYHHAVERLKEKFK | 0.0668

Sequence | soluble fraction (log2)
HMPPHGHIVELLPEQDFGRIETGDGRLVYFHRNSVLDGDFAQLAVGDAVRFAEEMGERGPQASSVHVE | -0.948
HMGEGRVRLAQEAANRFMTAMAGDRPGFEEAGRALFAGDRARFHAETEGWPEDIRDHARRLAEPALQ | -0.0593
HMVNINEVEVSRDLAHAKVFVTFVGDRTDEINTQALKVLNAAQGFLRSRIASNNHMRTTPRIHF | -0.214
HMDIVKVYTTARAGETLASVAKRTGVDVARLAQWNDIPLKRAKQKLKTGKALALWVQREHASAYSNAPP | 0.22
HMKTGIIYGVNGPVIYLKGDTGFKISEMVYVGPEKLVGEVIGLKKHMTTVQVFEETTGLKPGETVIGTGDA | -0.0122
HMSVPVNAPMPGTILDIKVKAGAAVKAGDVVMILEAMKMENEISAPQDGTIASIDVRKGDTVNSGDVLYTM | -0.00195
HMAPPTAEFFAHLPAEALSAVRRSVEEGNARGIDEAILRVETLDGEAGRVLRGLAARYEYGRILELTQR | -0.0842
HMNTVSPAVSAQLRQELGGELNNANFQQLQQYLQAGQRDEAIVYLTSLGIESPRAVSIVNNAMDQIG | 0.00938
HMDYYASVDQVWRELGLAGPARRALIDDGLFKLSDLRKTSLAAVKELHGMGPNAIRILTTEMKKADLSFR | ≥ 0.43
HMERVIYLLNGREVPAAEIRAAEPEALTVDRFYSSENLPAEYRDRNPELVVAFTAEEPLRHY | -0.559
HMQSLDGPSRAAIVLMAIGPDVAGELIKSFSPAEAQKVSSLLATVRSLDREVMIEVLDSFKNITEH | -0.5
HMIDTLEYIISEESKGLRADQAITMVNGEFSRSLIQKWIKKGSILVNGKKIKPRDILNLNDKVTINPEEN | -0.633
HMEMKMGHIISKLRYESGYSQVELAEKIGITKGAVGMYETDKRKPDYDTLIKLADLFNVSTDYLLS | -1.31
HMKSKHENLIDGLLKMISSMKPHDRLTPERQLAEEWAVSRMTLRRALEVLQFQGKIYTVPSSGLFVAEPK | -0.677
HMDLYEILGVRRGAGGGEIRRAYRRLARRYHPDVNPGDREAQARYALITRAFETLNDPERRRAYDAGVP | 0.0754
HMYHKKEKAQAANIEERIMILLSDGKHHHITEIKAIYVDEVITLNILEEMLAEEKVIIEGDMIMLVE | -1.47
HMPSEDELAERLRGAIRQGDILNEGRMPPERALAEHFGVSRARLRLALGLLQEDGTIYRRHGQGTFAT | -0.0169
HMEHGQWLSEAQGASLAADWLARRRGVLPLNARRHLSGLSDQIARQIEGGLSREAGLYTAHEMMESLDP | -0.217
HMAVETYRVKKSDTMQTIADRFGLSVEELLEYNQAYKTRELRARDILIIPSRKERKKLQQQKAQAAAQVVQ | 0.404
HMARGLRPVPSVFGLDVRQATRTLYAAGFQVSIARGSDVRTRPAAGTLLRVGSTVQLEMPRMESA | -0.000244
HMKKYISEEQAKQAALETAGGGSVVKIKFTTDDGIKVYEIDIINGNYEYEITVHAETGKILDVDKERIH | -0.404
HMITNMIIIMKPNASEEAIEKVKHLIESKGLQAHLSKGDEVTIVGVVGDKTRLHDSNIEISEGVDKIVNVT | -0.0219
HMGIYDQAAAAYIEFVESKNRAPKWNELIDALYKENGKDWIDRSTLHGLLRRKEFQELLAQKRKEHLV | -0.159
HMPGIDDAAVEHAERVLAQHIGPMARLLVRRTVPRAANLFDLHRRLGALIPESEPRTAFLSAVVT | 0.0209
HMQPVEHLPTTDPLTTSAASEHERYEKVRWWLEEMQRTYETGDEVRAERIRLSLIEQMYKWEGE | -1.09
